Measured values as given in the supplement of paper PMC12636428.

Tested on: Saccharomyces cerevisiae
Test: transcriptional activation domain activity (GFP:mCherry ratio, weighted mean of sorted bins, harmonized to initial dataset scale) (arbitrary fluorescence ratio units); higher = stronger transcriptional activation
Settings: beta-estradiol 1 µM; induction time 4 h
How it was run: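 Yeast diploids with a GFP reporter received barcoded protein tiles, fused to an estradiol-inducible synthetic transcription factor, at the URA3 locus. Cultures were diluted 1:5 into SC holding 1 uM beta-estradiol, incubated 4 hours at 30 °C, sorted into 8 bins on GFP:mCherry ratio, and sequenced for barcodes, with tiles under 50 reads discarded. Activation activity values come from the read-weighted mean of bin median fluorescence, averaged across barcodes and linearly placed on the initial dataset scale.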

Row | Sequence | transcriptional activation domain activity
1 | DTSSFFLRFFHFPFLQLFLLQCLISPCLYVRTCPISLLLLWWCFYSVFFCVRG | 50300
2 | MRAAPKYITFFLCYGSWFTSMTRGLSCPCWVYFIGHVSIVVVVVFFTFVYIHG | 38800
3 | HESEESSDKKGKKKAKIEEEKEEEKEAEEEKAEEVEEAEEAEEVGEVGEEAAV | 45400
4 | MRGCLVAGITLLTRFVVASCGRRNVGRMRHRPRGQPLPSSLMLLVVICREFRK | 66500
5 | GLRNERHFVLFMAYFVLSCWCFCTLGYSYMYLSLDFTQDWPHWPGRTPFILIY | 54000
6 | MLKLFWTISKVFGPSDLTLQERGHYMELIIALRFIQGWWQDRDLNGFLPLWVR | 65000
7 | VAVARTKARKAVVGIEKVEIAAEVEATPEIVTAARTRERKAVVGIESAETVAE | 45800
8 | GAATTANAGGKRNRMKVNGKYYTRLDCIGRGGSSRVYRVMAENSKFFALKRVT | 35500
9 | VSVSLIFFTCFLSLSLFFCVLVRVSWLSVPVPSIVFFWISFLLFCPFFPFSFF | 35700
10 | MMFFFFFLVSFIYFWIGAPVGFFILKIKFVMLDVQSLHLAIFLICPHLCFYVM | 54400
11 | DLQTYVLCLLLLYIARDFVDCLWNLFSTIAILCLVTWVTPMFLIAVFPIGLVY | 53700
12 | MDPQIDSQTPKRPSRGACRECASSKVKCLPQSSTNDGKCERCQLRGKACERRS | 22700
13 | KRRRWQLALLLLFWFAWLATFITVIHNSRFVSKVNGQDPYLLSCTSVLWSKNN | 47100
14 | DQCDITPEMRKEYNIDGADKANNPELAMDWLLVHLLFRTLQLLPNMFRAWLFN | 56200
15 | MDFFYIFNYLISYITNRLMILLYYFTHTHFLLFPLSLFYYYFSCSCFFLLFPP | 36500
16 | KTDKSKDRKTKKKKSHKATGSERPSSSRGEEPEKDEEPEKKEKRRKKRKEEKR | 17900
17 | LFINRLMWLVRSYLTTFFCKSCPGLAKKLIKYVTIQQLPPDVSWDPHFKPRYN | 67600
18 | KKEGEDGKGKRKVVVYVGNAKFVTQREEGRDAFSASLASFDAQESAHGRTTIY | 75600
19 | DISKLAIETFYFFFLFLLSFLFSFLFFSFLFLIFFNFLYSSFFLSFFLSFFLF | 33900
20 | TGPTNVGLIILIIVSFFQFNFFLPVHQSFAPKLLKHHYIIYRMICSQLSYLVL | 60900
21 | DYSIAQFRFLQRLLLVHGHWNYNRIAQYALATFWKEMLFYCIQLLYQRWNGYT | 37500

Row | Sequence | transcriptional activation domain activity
22 | IFHLPLECPFPLTNRRNACALIENFLDAVKYHRHLFPYWRRRAIKYFIWREWF | 32300
23 | MFCLRSWIPILFFLLRTNASPIYLILFISATYFLNRPCVYCSLLLFILVVALF | 50800
24 | CMIFGRWACGPALLAVIYAILGVGFAFALVVTRSFASKSYGDRLQFRLRHFFF | 39600
25 | ANEYNVVCSILVFWSDTVPLWGFFLIFWFFFLGFQLLGVESFGEAEFWLALLK | 62200
26 | VSTMLCYLNYCRTDVTVPTNSNPIFKLDNSLFLRLILLCNINLLLLLPFGLYL | 47100
27 | KQYCVRPNSGRIEPGKSVEVTVLLQAMKQEPPMDAKCRDKFLVQSVAVTADKE | 31600
28 | LNVLLGFLLLCFPNLERMVLNFGTVIAGPNHPGTLRKGYCEHCKLGVNVLEFD | 62000
29 | MKDSHTARSDAVVFAIAVGRPFFFAAVLLRLLATETLGSSIALGVIGLVFIYC | 42400
30 | MSSSAASGPMGESSKRKAGSEAVAGSSSSSSISRDGKKAKLKPQDEATATGAA | 31400
31 | KSSEAAPAEENKPSPEKNGKGKQGEDKGGNNGKENKGGDKGGGKGAQSKKGKK | 31600
32 | VPLCVAVLLLLAPHPSILHVLLNYHYLTLHAPGYFVVHLLIIYALYFLAFSSL | 34000
33 | TFVRLVMLIAMKVFKFDFLVLSYLATIVYSVCFLTYLCDWHSIFPFAWYHHIY | 47000
34 | FPYFPYFPYFPYFLYFLFSLFSLLSLLPLLLYFLHPFLFLTCFWFSKLACFLS | 51400
35 | AAKMAREYKKGERQAGRMRTEKGERGEEDGREREGTRRRREKEKEKNKEKGPR | 46000
36 | SRSRSRDRHRRSSRRHRRRSPSASRSRSASRSRRRRHSKRRSREKRHSSRRHR | 30200
37 | GASGGTKLAKKAPAAAAPKKVAAPKKEAAPKKEIKEKKPAAAPKKAAVPKKEA | 38800
38 | SKNDSASDEEEEGDDLPSAYCTVILNHQKVFKTRTKPKNSKPFFNAGCERFIP | 57400
39 | KEEEQKELDRMAREEKKVWGDALRLGRTSWSESVMVWSHVMALRVFVETVLRY | 62900
40 | MLICLFVVFSPFFLFIFLYLSAYRLSFFNFSCFLLFLYLFLIHLLYFPLYFIF | 61200
41 | LFLMVWYLLMFSFDKKAIEHAWGLMGLLSKLAQSLSLRKFVHSEILAHHLIGS | 80300
